In this assay the target is MIS type II receptor (MISRII) (human) (UniProt Q16671). Nature of the assay: cell-based or functional assay.
Chain of UniProt Q16671 (Q16671 18-573): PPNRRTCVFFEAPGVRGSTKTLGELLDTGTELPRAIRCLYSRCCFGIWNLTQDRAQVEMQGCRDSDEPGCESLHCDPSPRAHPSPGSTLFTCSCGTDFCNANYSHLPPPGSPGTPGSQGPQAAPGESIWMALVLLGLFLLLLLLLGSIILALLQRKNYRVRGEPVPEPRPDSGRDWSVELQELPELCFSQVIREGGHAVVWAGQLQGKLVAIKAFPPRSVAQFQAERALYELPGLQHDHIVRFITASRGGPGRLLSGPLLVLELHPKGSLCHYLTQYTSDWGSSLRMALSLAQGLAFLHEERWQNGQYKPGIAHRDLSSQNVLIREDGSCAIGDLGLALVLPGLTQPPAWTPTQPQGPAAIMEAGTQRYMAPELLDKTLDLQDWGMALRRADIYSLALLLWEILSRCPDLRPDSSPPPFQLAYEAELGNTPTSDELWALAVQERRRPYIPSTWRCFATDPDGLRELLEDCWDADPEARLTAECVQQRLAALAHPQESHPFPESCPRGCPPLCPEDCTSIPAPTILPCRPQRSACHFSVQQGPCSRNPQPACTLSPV

The substance “MIS over-expressed from an MIS protein expression construct (ligand)” showed a decrease in cell proliferation (cultured endometrial cells transiently transfected with an MIS protein expression construct) of 8%. “rhMIS (R&D Systems, Minneapolis, Minn.) (from UniProt P03971 452-560) (ligand)”: the decrease in viable cells (cultured endometrial cells, rhMIS 100 ng/mL, 72 hours) turned out to be 14%.
